Data on three molecules can be found in article PMC7979924 (2021).

For one experiment, the target named is T1, Lin28-CSD (32–136 aa.) (Homo sapiens (Human), UniProt Q9H9Z2).
T1 chain: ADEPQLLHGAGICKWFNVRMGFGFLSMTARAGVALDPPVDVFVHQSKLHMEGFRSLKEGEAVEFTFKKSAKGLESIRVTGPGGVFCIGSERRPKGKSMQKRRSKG
In words: NMR 1H-15N HSQC (peak heights); in presence of 20-nt poly(C) ssDNA; tests co-association on nucleic acid, not direct protein-protein binding.

The target of a further experiment is YB-1-CSD (1–180 aa.) (Homo sapiens (Human), UniProt P67809). In words: EMSA; in presence of ssDNA (M13, stem-loop or C20); tests mixing/cooperative co-association on nucleic acid, not direct binding. A general note: In EMSA bound probe runs differently from free probe, usually more slowly.
Chain of YB-1-CSD (1–180 aa.) (P67809 1-180): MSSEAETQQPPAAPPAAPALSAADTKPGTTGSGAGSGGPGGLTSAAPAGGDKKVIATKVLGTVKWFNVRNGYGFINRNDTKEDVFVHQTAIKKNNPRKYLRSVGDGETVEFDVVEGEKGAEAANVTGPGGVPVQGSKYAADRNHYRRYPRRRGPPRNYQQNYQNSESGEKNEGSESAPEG

B1: TDP-43 RRM2 (176–277aa.) (protein)
chain: KLPNSKQSQDEPLRSRKVFVGRCTEDMTEDELREFFSQYGDVMDVFIPKPFRAFAFVTFADDQIAQSLCGEDLIIKGISVHISNAEPKHNSNRQLERSGRFG
On to B1, for which the binding result in the experiment with Lin28-CSD (32–136 aa.) is listed as “no binding”.

B2: TDP43 (RRM 1–2, 101–277aa.) (protein)
chain: QKTSDLIVLGLPWKTTEQDLKEYFSTFGEVLMVQVKKDLKTGHSKGFGFVRFTEYETQVKVMSQRHMIDGRWCDCKLPNSKQSQDEPLRSRKVFVGRCTEDMTEDELREFFSQYGDVMDVFIPKPFRAFAFVTFADDQIAQSLCGEDLIIKGISVHISNAEPKHNSNRQLERSGRFG
Take B2: the binding result with YB-1-CSD (1–180 aa.) is recorded as “no binding”.

B3: FUS (RRM, 165–385aa.) (protein)
chain: SGGGGGGGGGGNYGQDQSSMSSGGGSGGGYGNQDQSGGGGSGGYGQQDRGGRGRGGSGGGGGGGGGGYNRSSGGYEPRGRGGGRGGRGGMGGSDRGGFNKFGGPRDQGSRHDSEQDNSDNNTIFVQGLGENVTIESVADYFKQIGIIKTNKKTGQPMINLYTDRETGKLKGEATVSFDDPPSAKAAIDWFDGKEFSGNPIKVSFATRRADFNRGGGNGRGG
On to B3, for which, in the experiment with YB-1-CSD (1–180 aa.), the binding result was “no binding”.
